Assay results reported in patent US20160108128A1 (CANCER RESEARCH TECHNOLOGY, published 2016).
Substitutions are numbered along the chain they refer to.

B1: J1-183D variant 11 (antibody, human IgG1, V domains shown)
VH: QVQLVQSGAELKKPGASVKVSCKVSGYAFTDYAIHWVRQAPGQGLEWMGIINTYYGDSKYAQKFQGRVTMTVDTSTSTAYMELSSLRSEDTAVYYCARGYDGFAYWGQGTLVTVSS
VL: DIQMTQSPSSLSASVGDRVTITCRTSENIYSYLTWYQQKPGKAPKLLIYNAKILDSGVPSRFSGSGSGTDFTLTISSLQPEDFATYYCQHHYDIPWTFGGGTKLEIKR
notes: human IgG1; also called J1-183DV11; V11
B2: J1-183D variant 14 (antibody, human IgG1, V domains shown)
VH: B1 VH with V37I
VL: B1 VL with N50H
notes: human IgG1; also called J1-183DV14; V14
B3: J1-183D variant 15 (antibody, human IgG1, V domains shown)
VH: B1 VH
VL: B1 VL with N50H
notes: human IgG1; also called J1-183DV15; V15
B4: J1-183D variant 13 (antibody, human IgG1, V domains shown)
VH: B1 VH with V37I, A61N, Q65K, G66D, T74K
VL: B1 VL with N50H
notes: human IgG1; also called J1-183DV13; V13
B5: J1-183D variant 12 (antibody, human IgG1, V domains shown)
VH: B1 VH with L11V, V24A, A28T
VL: B1 VL
notes: human IgG1; also called J1-183DV12; V12
B6: J1-183D variant 16 (antibody, human IgG1, V domains shown)
VH: B1 VH with L11V, V24A, A28T
VL: B1 VL with N50H
notes: human IgG1; also called J1-183DV16; V16
B7: J1-183D (antibody, V domains shown)
VH: QVQLQQPGTELVRPGVSVKISCKVSGYAFTDYAIHWIMQSHAKSLEWIGIINTYYGDSKYNQKFKDKATMTVDKSSNTAYMELARLTSEDSAIYYCARGYDGFAYWGQGTLVTVSS
VL: DIQLTQSPASLSASVGETVTFTCRTSENIYSYLTWYQQKQGKSPQLLVYNAKILAAGVPSRFSGYGSGTQFSLKINSLQPEDFGTYYCQHHYDIPWTFGGGTKLEIK
B8: J1-65D (antibody, V domains shown)
VH: QVQLQQPGAELVRPGASVKLSCKALGYTFTDYEMHWVKETPVHGLEWIGAIQPGGGGTAYNQKFKGKATLTADKSSSTAYMELSSLTSEDSAVYYCTRRGYDDYPFAYWGQGTLVTVSS
VL: DIQLTQSPASLSASVGETVTITCRASGNIHNYLAWYQQKQGKSPQLLVYNAKTLADDIPSRFSGSGSGTQYSLKINSLQPEDFGSYYCQHFWSAPWTFGGGTKLEIK
B9: J1-65D variant 6 (antibody, human IgG1, V domains shown)
VH: QVQLVQSGAELKKPGSSVKVSCKASGYTFTDYEMHWVRQAPGQGLEWMGAIQPGGGGTAYAQKFKGRVTLTADKSTSTAYMELSSLRSEDTAVYYCTRRGYDDYPFAYWGQGTLVTVSS
VL: DIQMTQSPSSLSASVGDRVTITCRASGNIHNYLAWYQQKPGKAPKLLIYNAKTLADAVPSRFSGSGSGTDYTLTISSLQPEDFATYYCQHFWSAPWTFGGGTKLEIKR
notes: human IgG1; also called J1-65DV6; V6
B10: J1-65D variant 11 (antibody, human IgG1, V domains shown)
VH: B9 VH with L11V, K65Q
VL: B9 VL with G100Q
notes: human IgG1; also called J1-65DV11; V11
B11: J1-65D variant 1 (antibody, human IgG1, V domains shown)
VH: B9 VH with A61N
VL: B9 VL with A57D
notes: human IgG1; also called J1-65DV1; V1
B12: J1-65D variant 3 (antibody, human IgG1, V domains shown)
VH: B9 VH with L11V, K65Q
VL: B9 VL with A57D
notes: human IgG1; also called J1-65DV3; V3
B13: J1-65D variant 4 (antibody, human IgG1, V domains shown)
VH: B9 VH with L11V, K65Q, L70I
VL: B9 VL with A57D
notes: human IgG1; also called J1-65DV4; V4
B14: J1-65D variant 7 (antibody, human IgG1, V domains shown)
VH: B9 VH with L11V, K65Q
VL: B9 VL
notes: human IgG1; also called J1-65DV7; V7
B15: J1-65D variant 10 (antibody, human IgG1, V domains shown)
VH: B9 VH
VL: B9 VL with G100Q
notes: human IgG1; also called J1-65DV10; V10
B16: J1-65D variant 8 (antibody, human IgG1, V domains shown)
VH: B9 VH with L11V, K65Q, L70I
VL: B9 VL
notes: human IgG1; also called J1-65DV8; V8
B17: J1-65D variant 9 (antibody, human IgG1, V domains shown)
VH: B9 VH with A61N
VL: B9 VL with G100Q
notes: human IgG1; also called J1-65DV9; V9
B18: J1-65D variant 2 (antibody, human IgG1, V domains shown)
VH: B9 VH
VL: B9 VL with A57D
notes: human IgG1; also called J1-65DV2; V2
B19: J1-65D variant 5 (antibody, human IgG1, V domains shown)
VH: B9 VH with A61N
VL: B9 VL
notes: human IgG1; also called J1-65DV5; V5
B20: J1-65D variant 12 (antibody, human IgG1, V domains shown)
VH: B9 VH with L11V, K65Q, L70I
VL: B9 VL with G100Q
notes: human IgG1; also called J1-65DV12; V12

How the values were obtained:
[1] = biological target: T1, human Jagged 2, full length, on HEK293 cells (human, UniProt Q9Y219 24-1238); assay: FACS, 293-JAG2 cells, anti-human-APC
T1 construct: whole, on cells; also called J2; hJ2
T1 sequence (Q9Y219 24-1238): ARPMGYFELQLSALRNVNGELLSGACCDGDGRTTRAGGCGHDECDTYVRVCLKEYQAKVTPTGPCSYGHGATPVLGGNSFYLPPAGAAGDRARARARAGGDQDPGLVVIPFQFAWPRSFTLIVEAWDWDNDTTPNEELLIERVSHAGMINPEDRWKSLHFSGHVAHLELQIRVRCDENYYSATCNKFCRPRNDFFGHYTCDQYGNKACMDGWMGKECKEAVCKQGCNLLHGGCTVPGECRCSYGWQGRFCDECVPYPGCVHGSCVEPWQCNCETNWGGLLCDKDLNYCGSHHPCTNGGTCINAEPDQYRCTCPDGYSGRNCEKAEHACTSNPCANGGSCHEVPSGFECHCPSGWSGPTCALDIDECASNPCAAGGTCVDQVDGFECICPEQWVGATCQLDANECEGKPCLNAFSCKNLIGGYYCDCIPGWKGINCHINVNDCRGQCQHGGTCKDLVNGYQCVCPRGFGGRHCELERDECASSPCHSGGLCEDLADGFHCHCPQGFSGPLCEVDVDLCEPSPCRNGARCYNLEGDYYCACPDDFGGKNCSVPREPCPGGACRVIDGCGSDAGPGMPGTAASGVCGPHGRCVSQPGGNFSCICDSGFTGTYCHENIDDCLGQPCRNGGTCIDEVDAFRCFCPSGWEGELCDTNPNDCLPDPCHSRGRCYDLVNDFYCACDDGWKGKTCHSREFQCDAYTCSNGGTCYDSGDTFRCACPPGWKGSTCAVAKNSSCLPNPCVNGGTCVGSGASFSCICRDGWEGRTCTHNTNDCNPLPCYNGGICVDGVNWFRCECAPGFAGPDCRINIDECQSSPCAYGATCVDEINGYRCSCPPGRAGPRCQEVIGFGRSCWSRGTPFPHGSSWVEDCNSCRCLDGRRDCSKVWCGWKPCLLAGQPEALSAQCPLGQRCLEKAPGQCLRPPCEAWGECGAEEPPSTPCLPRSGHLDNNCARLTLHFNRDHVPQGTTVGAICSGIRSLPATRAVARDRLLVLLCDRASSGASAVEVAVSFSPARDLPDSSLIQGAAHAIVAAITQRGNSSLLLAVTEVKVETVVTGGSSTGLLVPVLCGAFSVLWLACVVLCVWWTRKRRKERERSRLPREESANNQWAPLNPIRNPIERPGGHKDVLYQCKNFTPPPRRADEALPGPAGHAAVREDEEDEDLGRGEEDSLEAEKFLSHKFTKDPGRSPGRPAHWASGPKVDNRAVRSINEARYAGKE
Protocol: FIG. 18. […] Samples were analysed by FACS and the mean fluorescence intensities (MFI) were plotted. […] With the exception of J1-65D variants 13-16, all the remaining antibodies effectively bound the human J1 protein.
(§1) HEK293 cells transfected with human J1, J2 or FLAG-EGFP-tagged DSL-EGF3 constructs, B16F10 cells transfected with human DLL4 or mouse J1, and human cancer cell lines, were stained with either purified anti-J1 antibodies at 10 μg/ml diluted in FACS wash buffer (2% FBS in PBS+0.1% sodium azide) or neat hybridoma supernatants followed by a allophycocyanin (APC)-conjugated secondary antibody at 1:200 dilution: for murine primary antibodies, used goat anti-mouse-APC (eBioscience); for humanised and chimeric antibodies used goat anti-human IgG (H+L) secondary antibody (Jackson ImmunoResearch Laboratories). After washing, samples were fixed with 1% paraformaldehyde (in PBS) and acquired with a FACSCalibur. FACS data were analysed with FlowJo software (TreeStar Inc.).

[2] = biological target: T2, murine Jagged 1, full length, on B16F10 cells (mouse, UniProt Q9QXX0 34-1218); assay: FACS, B16F10-mJAG1 cells, anti-human-APC
T2 construct: whole, on cells; GFP co-expressed; also called mJ1; B16F10-mJAG1
T2 sequence (Q9QXX0 34-1218, one chain of several): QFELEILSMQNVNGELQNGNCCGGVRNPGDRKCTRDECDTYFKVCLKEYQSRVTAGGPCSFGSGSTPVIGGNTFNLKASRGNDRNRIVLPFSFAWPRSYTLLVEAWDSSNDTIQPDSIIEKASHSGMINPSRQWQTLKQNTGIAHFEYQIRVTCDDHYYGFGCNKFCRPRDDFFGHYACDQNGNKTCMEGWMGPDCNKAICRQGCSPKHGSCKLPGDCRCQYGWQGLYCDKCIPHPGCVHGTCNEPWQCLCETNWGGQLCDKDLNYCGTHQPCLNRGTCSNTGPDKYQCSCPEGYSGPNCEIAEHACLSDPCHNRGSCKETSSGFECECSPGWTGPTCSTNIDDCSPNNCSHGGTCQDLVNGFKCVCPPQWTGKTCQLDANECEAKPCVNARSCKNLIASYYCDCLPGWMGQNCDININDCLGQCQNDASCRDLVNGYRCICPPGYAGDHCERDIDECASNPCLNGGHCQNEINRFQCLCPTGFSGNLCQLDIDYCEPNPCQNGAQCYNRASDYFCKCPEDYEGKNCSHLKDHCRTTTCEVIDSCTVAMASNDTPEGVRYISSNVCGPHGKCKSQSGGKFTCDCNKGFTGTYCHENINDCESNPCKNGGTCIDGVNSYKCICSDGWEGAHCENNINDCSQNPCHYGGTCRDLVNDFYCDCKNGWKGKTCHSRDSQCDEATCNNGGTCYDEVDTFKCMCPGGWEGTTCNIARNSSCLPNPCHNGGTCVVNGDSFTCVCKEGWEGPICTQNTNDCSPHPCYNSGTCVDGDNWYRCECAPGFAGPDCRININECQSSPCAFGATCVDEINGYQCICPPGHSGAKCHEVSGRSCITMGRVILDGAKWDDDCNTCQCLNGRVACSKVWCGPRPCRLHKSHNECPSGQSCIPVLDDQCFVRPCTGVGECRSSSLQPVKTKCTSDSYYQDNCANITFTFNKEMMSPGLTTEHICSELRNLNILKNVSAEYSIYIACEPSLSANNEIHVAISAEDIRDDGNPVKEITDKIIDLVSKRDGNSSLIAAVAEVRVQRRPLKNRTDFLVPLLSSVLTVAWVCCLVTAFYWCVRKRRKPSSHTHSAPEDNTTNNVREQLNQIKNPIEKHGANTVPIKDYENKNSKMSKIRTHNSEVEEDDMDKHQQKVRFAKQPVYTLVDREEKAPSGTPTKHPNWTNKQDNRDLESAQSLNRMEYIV
Protocol: FIG. 19. […] Samples were analysed by FACS and the mean fluorescence intensities (MFI) were plotted.
as §1

[3] = biological target: T3, J1 DSL-EGF3 soluble recombinant protein (human Jagged 1 amino acids 185-335) (human, UniProt P78504 185-335); assay: affinity to the immunogen J1-DE3; method not stated
T3 construct: biotinylated in the CD46 ELISA; also called J1-DE3; DSL+EGF1-3
T3 sequence (P78504 185-335, form in doubt): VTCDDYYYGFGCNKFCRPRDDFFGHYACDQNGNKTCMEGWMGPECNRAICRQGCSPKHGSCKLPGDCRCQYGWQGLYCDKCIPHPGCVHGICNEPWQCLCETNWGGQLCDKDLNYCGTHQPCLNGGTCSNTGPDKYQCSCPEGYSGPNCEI

[4] = biological target: T3, J1 DSL-EGF3 soluble recombinant protein …; assay: SPR (Biacore), mAb immobilised, J1 protein in flow
[5] = biological target: T4, J1-NE3 (human Jagged 1, entire N-terminus until the third EGF domain) (human, UniProt P78504 32-335, limits assumed); assay: SPR (Biacore), mAb immobilised, J1 protein in flow
T4 construct: domain: entire N-terminus until the third EGF domain; eukaryotically expressed soluble form used in SPR

[6] = biological target: T5, J1-NE12 (human Jagged 1, entire N-terminus to EGF12) (human, UniProt P78504 32-703); assay: SPR (Biacore), mAb immobilised, J1 protein in flow
T5 construct: domain: entire N-terminus to EGF12; eukaryotically expressed soluble form used in SPR

[7] = biological target: T6, human Jagged 1, full length, on cells (human, UniProt P78504 34-1218); assay: FACS competition, HEK293-J1 cells, against biotinylated J1-65D 1.0 µg/ml
T6 construct: whole, on cells; the cell is named under assay; also called hJ1; J1
T6 sequence (P78504 34-1218): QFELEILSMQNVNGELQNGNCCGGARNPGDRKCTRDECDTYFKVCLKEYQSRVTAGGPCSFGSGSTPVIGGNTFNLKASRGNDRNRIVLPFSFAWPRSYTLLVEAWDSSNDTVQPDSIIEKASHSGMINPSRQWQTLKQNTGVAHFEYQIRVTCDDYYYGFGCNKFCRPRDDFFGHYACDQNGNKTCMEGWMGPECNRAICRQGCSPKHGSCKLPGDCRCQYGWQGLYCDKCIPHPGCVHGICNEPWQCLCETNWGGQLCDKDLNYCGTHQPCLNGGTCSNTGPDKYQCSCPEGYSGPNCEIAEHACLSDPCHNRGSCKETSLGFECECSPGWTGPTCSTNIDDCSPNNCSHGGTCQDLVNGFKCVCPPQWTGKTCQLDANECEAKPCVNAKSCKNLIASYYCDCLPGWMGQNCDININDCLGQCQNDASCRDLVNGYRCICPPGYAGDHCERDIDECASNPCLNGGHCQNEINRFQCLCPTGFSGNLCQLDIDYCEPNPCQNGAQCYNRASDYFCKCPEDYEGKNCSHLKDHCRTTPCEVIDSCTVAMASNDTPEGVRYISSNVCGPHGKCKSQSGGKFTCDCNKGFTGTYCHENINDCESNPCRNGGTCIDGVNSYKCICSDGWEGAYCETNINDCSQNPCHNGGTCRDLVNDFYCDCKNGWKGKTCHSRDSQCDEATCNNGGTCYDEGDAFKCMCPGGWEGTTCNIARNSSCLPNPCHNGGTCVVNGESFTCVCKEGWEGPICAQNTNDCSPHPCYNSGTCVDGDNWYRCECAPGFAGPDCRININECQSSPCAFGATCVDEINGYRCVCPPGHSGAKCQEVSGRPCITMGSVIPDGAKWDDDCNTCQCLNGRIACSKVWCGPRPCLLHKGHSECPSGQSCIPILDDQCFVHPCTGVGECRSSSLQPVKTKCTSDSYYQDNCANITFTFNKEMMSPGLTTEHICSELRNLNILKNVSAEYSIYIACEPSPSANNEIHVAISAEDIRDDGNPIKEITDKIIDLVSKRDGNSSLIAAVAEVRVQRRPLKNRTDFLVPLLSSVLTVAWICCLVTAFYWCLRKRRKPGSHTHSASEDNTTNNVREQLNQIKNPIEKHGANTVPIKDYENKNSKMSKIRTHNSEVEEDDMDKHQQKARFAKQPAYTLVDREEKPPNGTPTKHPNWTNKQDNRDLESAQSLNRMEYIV

[8] = biological target: T6, human Jagged 1, full length, on cells; assay: FACS competition, HEK293-J1 cells, against biotinylated J1-156A 1.0 µg/ml
[9] = biological target: T6, human Jagged 1, full length, on cells; assay: FACS competition, HEK293-J1 cells, against biotinylated J1-187B 1.0 µg/ml

Row | Binder | binding result [1] | binding result [2] | Kd [3] | Kd [4] | Kd [5] | Kd [6] | IC50 (read off the curve) [7] | IC50 (read off the curve) [8] | IC50 (read off the curve) [9]
1 | B1 | no binding (tested: 10 ug/ml) | no binding (tested: 10 ug/ml) | 2.82 nM | – | – | – | – | – | –
2 | B2 | no binding (tested: 10 ug/ml) | no binding (tested: 10 ug/ml) | 3.91 nM | – | – | – | – | – | –
3 | B3 | no binding (tested: 10 ug/ml) | no binding (tested: 10 ug/ml) | 5.47 nM | – | – | – | – | – | –
4 | B4 | no binding (tested: 10 ug/ml) | no binding (tested: 10 ug/ml) | 1.5 nM | – | – | – | – | – | –
5 | B5 | no binding (tested: 10 ug/ml) | no binding (tested: 10 ug/ml) | 2.61 nM | – | – | – | – | – | –
6 | B6 | no binding (tested: 10 ug/ml) | no binding (tested: 10 ug/ml) | 4.86 nM | – | – | – | – | – | –
7 | B7 | – | – | 0.58 nM | 4.9 nM | 5.2 nM | 4.4 nM | – | – | –
8 | B8 | – | – | 0.13 nM | 9.7 nM | 3.3 nM | 3 nM | ~1 µg/mL | ~0.6 µg/mL | ~0.5 µg/mL
9 | B9 | no binding (tested: 10 ug/ml) | no binding (tested: 10 ug/ml) | 0.223 nM | – | – | – | – | – | –
10 | B10 | no binding (tested: 10 ug/ml) | no binding (tested: 10 ug/ml) | 0.243 nM | – | – | – | – | – | –
11 | B11 | no binding (tested: 10 ug/ml) | no binding (tested: 10 ug/ml) | 0.15 nM | – | – | – | – | – | –
12 | B12 | no binding (tested: 10 ug/ml) | no binding (tested: 10 ug/ml) | 0.158 nM | – | – | – | – | – | –
13 | B13 | no binding (tested: 10 ug/ml) | no binding (tested: 10 ug/ml) | 0.0949 nM | – | – | – | – | – | –
14 | B14 | no binding (tested: 10 ug/ml) | no binding (tested: 10 ug/ml) | 0.151 nM | – | – | – | – | – | –
15 | B15 | no binding (tested: 10 ug/ml) | no binding (tested: 10 ug/ml) | 0.293 nM | – | – | – | – | – | –
16 | B16 | no binding (tested: 10 ug/ml) | no binding (tested: 10 ug/ml) | 0.0717 nM | – | – | – | – | – | –
17 | B17 | no binding (tested: 10 ug/ml) | no binding (tested: 10 ug/ml) | 0.0139 nM | – | – | – | – | – | –
18 | B18 | no binding (tested: 10 ug/ml) | no binding (tested: 10 ug/ml) | 0.165 nM | – | – | – | – | – | –
19 | B19 | no binding (tested: 10 ug/ml) | no binding (tested: 10 ug/ml) | 0.0446 nM | – | – | – | – | – | –
20 | B20 | no binding (tested: 10 ug/ml) | no binding (tested: 10 ug/ml) | 0.0806 nM | – | – | – | – | – | –
